“Also recorded” adds a separate entry of the source.
Experiments:
[1] = molecular target: T1, binding of surface ENO1 of C. albicans to plasminogen (Candida albicans, UniProt P30575); assay: Fibrin matrix-gel degradation analysis with C. albicans cells; format: cell-based; conditions: for Binding of CaENO1 to plasminogen: fibrin matrix-gel degradation analysis, C. albicans cells
T1 construct: endogenous in cells; host or cells: C. albicans cells
Experimental: The ability of CaS1 scFv to block the binding of CaENO1 with plasminogen was evaluated by fibrin matrix-gel degradation analysis. Various samples containing C. albicans only (1), C. albicans+1 ug of plasminogen (2) or C. albicans+10 ug of plasminogen (3) were spotted on the plate. Similar experiments were carried out except C. albicans were mixed first with 10 ug (4) or 100 ug (5) of CaS1 scFv, followed by the addition of 10 ug of plasminogen. C. albicans+CaS1 scFv without plasminogen (6) were spotted as a negative control.
The matrix gel was prepared for fibrinolysis activity detection^33. C. albicans (10^6 cells) were washed and incubated with or without CaS1scFv ([…]) at 37° C. for 1 hr. After incubation, cells were washed and incubated with plasminogen (10 μg) for 30 min. The mixtures were washed with PBS to remove free plasminogen. The resulting cell pellets were placed in a matrix gel that contained 1.25% low-melting-temperature agarose, thrombin (0.05 U/ml, Sigma) and fibrinogen (2 mg/ml, Sigma). The gel was incubated in a humidified chamber at 37° C. for 10-14 hrs until the appearance of clear spots indicated the presence of fibrinolysis activity.
It is well known that surface ENO1 act as a plasminogen receptor 32, binding to plasminogen will activate it to plasmin and leading to the degradation of the fibrinogen (extracellular matrix) containing in the gel. We performed matrix-gel studies to test the possible biological significance of CaENO1-plasminogen association and the effect of CaS1 scFv on this binding was observed.
The inhibition of the degradation of the fibrinogen in the gel is obvious.

mENO1 = molecular target: T2, mENO1 (Mus musculus, UniProt P17182); assay: Western blot on purified mouse ENO1 protein; format: binding
T2 construct: His; made in house; host or cells: E. coli BL21 (by 'in the same way')
T2 sequence (P17182 whole entry): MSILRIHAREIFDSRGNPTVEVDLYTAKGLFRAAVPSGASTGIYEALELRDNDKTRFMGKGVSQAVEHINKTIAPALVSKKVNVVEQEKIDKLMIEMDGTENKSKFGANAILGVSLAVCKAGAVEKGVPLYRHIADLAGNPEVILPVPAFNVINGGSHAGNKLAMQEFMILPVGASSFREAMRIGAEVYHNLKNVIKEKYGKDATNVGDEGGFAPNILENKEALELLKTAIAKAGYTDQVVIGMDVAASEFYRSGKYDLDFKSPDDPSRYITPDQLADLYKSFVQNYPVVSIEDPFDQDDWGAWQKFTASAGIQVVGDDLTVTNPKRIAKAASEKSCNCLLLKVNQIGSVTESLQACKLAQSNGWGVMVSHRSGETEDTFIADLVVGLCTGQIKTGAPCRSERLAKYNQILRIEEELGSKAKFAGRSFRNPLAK
Description: Lane M contained protein markers.
The ImageQuant LAS4500 was used for ECL intensity detection.

C. albicans [2] = assay: C. albicans hyphal formation; format: cell-based; conditions: CaS1 scFv pre-incubated with 10^3 cfu, 5 days at 37° C.
Experimental: (§1) (A) C. albicans were cultured in YPD medium overnight at 37° C. 10^8 cfu/ml of C. albicans was mixed with equal volume of 0.5 mg/ml anti-CaENO1 IgY, 0.5 mg/ml CaS1 scFv or 1×PBS, respectively, at room temperature for 1 hr. 1 ul of each mixture in 10× dilutions was spotted on YPD agar plate and incubated at 37° C. overnight. (B) 10^3 cfu of C. albicans was mixed with PBS (control), 10 or 100 µg/ml CaS1 scFv at room temperature for 1 hr. 1 ul of each mixture was spotted on YPD agar plate and incubated at 37° C. for 5 days. The hyphal formation was observed under the microscope.
(§2) To determine the effect of scFv antibodies on the cell growth and hyphal formation, anti-CaENO1 IgY (0.5 mg/ml) or CaS1 scFv (0.5 mg/ml) or PBS were pre-incubated with C. albicans (1×10^6 cfu) for 1 hr at 37° C. After incubation, 1 ul of each mixture in 10-fold dilutions was spotted on YPD agar plate and incubated at 37° C. overnight. 10^3 cfu of C. albicans was mixed with 0 (1×PBS control), 10 or 100 µg/ml CaS1 scFv at room temperature for 1 hr. Thereafter, 1 ul of each mixture was spotted on YPD agar plate and incubated at 37° C. for 5 days. […].
So we further investigated whether CaS1 scFv affects the hyphal formation. We pre-incubated CaS1 scFv with C. albicans and the colony morphology was examined. […]

C. albicans [3] = assay: C. albicans growth on YPD agar plate; format: cell-based; conditions: 0.5 mg/ml antibody pre-incubated 1 hr, 10x dilutions spotted
Experimental: as §1, §2
We evaluated the influence of CaS1 on growth of C. albicans, we pre-incubated CaS1 scFv with C. albicans and plated on the agar.

C. albicans [4] = assay: Mouse model of C. albicans infection (survival); format: in vivo, ICR mice; conditions: for survival rate: ICR mice; for Protection against lethal challenge of C. albicans in mice: mouse, in vivo
Experimental: The mice were grouped and challenged with the mixture of 10^6 of C. albicans containing 10 ug and 100 ug CaS1 scFv, 100 ug anti-DA scFv (unrelated scFv control) or 1×PBS, respectively. The survival of mice was monitored at 1 day intervals for 10 days.
A total of 20 ICR female mice (purchased from National Laboratory Animal Center, Taiwan) weighing about 30 g were randomly grouped with 5 mice in each group. C. albicans were grown overnight and washed in normal saline. Four groups of mice were treated through the lateral tail vein with the following preparations: (i) 1×PBS alone; (ii) 1×10^6 cfu of C. albicans cells pre-incubated with 50 μg of CaS1; (iii) 1×10^6 cfu of C. albicans cells pre-incubated with 100 μg of CaS1; (iv) 1×10^6 cfu of C. albicans cells pre-incubated with anti-CaENO1 IgY. Mice were monitored for survival at 1 day intervals for 10 days. All treatments and handling of mice were carried out according to animal experimental protocols approved by the Institutional Animal Care and Use Committee of Taipei Medical University.
1×10^6 cells of C. albicans solutions were mixed with 100 μg of each of the anti-CaENO1 IgY, scFv CaS1 and control scFv and then injected into ICR mice (5 mice for each group).
We evaluated the survival rate of the CaS1 on animal model. Initially ICR mice were tail-vein injected with 1×10^6 cells of C. albicans with PBS alone or cells pre-incubated with CaS1 (10 and 100 μg) for one hour at 37° C. […] Anti-Deinagkistrodon acutus scFv (anti-DA) is an antibody to snake venom, which was used as an unrelated scFv control.

T1 sequence (P30575 whole entry): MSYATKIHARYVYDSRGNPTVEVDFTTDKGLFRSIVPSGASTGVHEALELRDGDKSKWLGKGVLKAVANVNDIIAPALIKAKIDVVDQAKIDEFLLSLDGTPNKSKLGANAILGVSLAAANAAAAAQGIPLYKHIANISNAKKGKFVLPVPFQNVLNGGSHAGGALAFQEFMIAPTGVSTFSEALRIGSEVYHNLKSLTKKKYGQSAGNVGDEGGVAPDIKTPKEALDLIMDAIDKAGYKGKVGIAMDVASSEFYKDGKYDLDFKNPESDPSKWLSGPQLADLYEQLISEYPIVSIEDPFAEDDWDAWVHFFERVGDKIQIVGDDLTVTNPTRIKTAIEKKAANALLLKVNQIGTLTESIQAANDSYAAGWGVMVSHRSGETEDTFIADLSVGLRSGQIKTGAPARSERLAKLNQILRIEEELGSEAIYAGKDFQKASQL

B1: CaS1 scFv: anti-CaENO1 scFv monoclonal antibody from chicken phage library; light chain SEQ ID NO:11, heavy chain SEQ ID NO:12 (antibody, V domains shown)
VH: TVTLDESGGGLQTPRGALSLVCKASGFTFIDYGMQWVRQAPGKGLEWVAGIGSSGSSTNYGAAVKGRATISRDDGQSTVRLQLNNLRAEDTGTYYCAKSAGGYCVNGAGCNGGSIDAWGHGTEVIVSS
VL: ALTQPSSVSANLGGTVKITCSGGSGSYGWYQQKSPGSAPVTVIYSNNQRPSNIPSRFSGSPSGSTGTLTITGVQADDEAVYFCGSRDSSYVGVFGAGTTLTVL
modifications: scFv linker; amino acid sequence comprised in a heavy chain of an anti-CaENO1 scFv monoclonal antibody (CaS1); amino acid sequence comprised in a light chain of an anti-CaENO1 scFv monoclonal antibody (CaS1)
Fibrinolytic activity of C. albicans with plasminogen ([1]; C. albicans pre-incubated with 10 ug or 100 ug, then 10 ug plasminogen): significantly inhibited | Fibrinolysis activity in the absence of plasminogen ([1]; C. albicans+CaS1 scFv without plasminogen): no fibrinolysis activity | Binding of CaENO1 to plasminogen [1]: significantly reduced | Binding of CaENO1 to plasminogen ([1]; listed as CaS1): significantly inhibited | Binding to purified mENO1 (Western blot) (mENO1): very little; also recorded: weak cross reactivity | Hyphal formation (C. albicans [2]): very little or none were observed | C. albicans growth on YPD agar plate (C. albicans [3]): decreased C. albicans growth | C. albicans growth on YPD agar plate (C. albicans [3]; listed as CaS1): attenuated the growth | survival rate (C. albicans [4]; 10 μg pre-incubated with 1×10^6 cells of C. albicans, tail-vein): 40% | survival rate (C. albicans [4]; 100 μg mixed with 1×10^6 cells of C. albicans, 10 days): 80% | Protection against lethal challenge of C. albicans in mice (C. albicans [4]): partial protect activity; also recorded: significant protective activity | Protection against lethal challenge of C. albicans in mice (C. albicans [4]; listed as CaS1 antibody): prolonged the survival time
